Test [1] concerns the target HLA-DR1 (HLA-DRα*0101 and HLA-DRβ1*0101) (human). The test can be described thus: ELISA; competitive peptide-binding assay: test peptide 10^-4-10^-10 M against 4.5 nM biotinylated CLIP 99-117 marker peptide for 0.1 μg refolded HLA-DR1-CLIP 105-117; 20 mM MES, 140 mM NaCl, 0.02% NaN3, pH 5, overnight at 37 °C; HLA-DR1 captured on anti-DR L243, bound marker detected with streptavidin-HRP; % competitive inhibition, four-parameter fit.

The target in test [2] is HLA-DR1 (HLA-DRα*0101 and HLA-DRβ1*0101). Put plainly: in vitro competition assay (HLA-DR1 peptide binding).
The target of test [3] is HLA-DR1 (HLA-DRα*0101 and HLA-DRβ1*0101) (human). Put plainly: ELISA. Background: In an ELISA, binding on a coated surface is turned into a signal by an enzyme label.

One may read the IC50 as the concentration at which inhibition is half-maximal. Read a high IC50 as lower potency. “5T4_(11–30) peptide (from UniProt Q13641 11-30)”: the IC50 in test [1] came to 535 nM. With 5T4_(111–130) 20-mer peptide E3A, the IC50 in test [2] turned out to be 149 nM. In test [3], “IAV hemagglutinin_(306–319) epitope (peptide)” returned an IC50 of 13 nM.

For the origin of these results see PMC6937582, “Human leukocyte antigen (HLA) class II peptide flanking residues tune the immunogenicity of a human tumor-derived epitope” (The Journal of Biological Chemistry, 2019).
